Results reported in paper PMC7949046, “Human genetic variants disrupt RGS14 nuclear shuttling and regulation of LTP in hippocampal neurons” (The Journal of Biological Chemistry, 2020).

Biological target: T1, purified XPO1-GST (GST-CRM1, Exportin 1) (human, UniProt O14980 1-1071)
T1 construct: Results and legend name the protein of the pull-down XPO1-GST / GST-XPO1, but the methods say that CRM1/XPO1 was cleaved from the beads with TEV protease; also called GST-XPO1; CRM1/XPO1; source: E. coli BL21, purified (glutathione Sepharose 4B)
T1 sequence (O14980 whole entry): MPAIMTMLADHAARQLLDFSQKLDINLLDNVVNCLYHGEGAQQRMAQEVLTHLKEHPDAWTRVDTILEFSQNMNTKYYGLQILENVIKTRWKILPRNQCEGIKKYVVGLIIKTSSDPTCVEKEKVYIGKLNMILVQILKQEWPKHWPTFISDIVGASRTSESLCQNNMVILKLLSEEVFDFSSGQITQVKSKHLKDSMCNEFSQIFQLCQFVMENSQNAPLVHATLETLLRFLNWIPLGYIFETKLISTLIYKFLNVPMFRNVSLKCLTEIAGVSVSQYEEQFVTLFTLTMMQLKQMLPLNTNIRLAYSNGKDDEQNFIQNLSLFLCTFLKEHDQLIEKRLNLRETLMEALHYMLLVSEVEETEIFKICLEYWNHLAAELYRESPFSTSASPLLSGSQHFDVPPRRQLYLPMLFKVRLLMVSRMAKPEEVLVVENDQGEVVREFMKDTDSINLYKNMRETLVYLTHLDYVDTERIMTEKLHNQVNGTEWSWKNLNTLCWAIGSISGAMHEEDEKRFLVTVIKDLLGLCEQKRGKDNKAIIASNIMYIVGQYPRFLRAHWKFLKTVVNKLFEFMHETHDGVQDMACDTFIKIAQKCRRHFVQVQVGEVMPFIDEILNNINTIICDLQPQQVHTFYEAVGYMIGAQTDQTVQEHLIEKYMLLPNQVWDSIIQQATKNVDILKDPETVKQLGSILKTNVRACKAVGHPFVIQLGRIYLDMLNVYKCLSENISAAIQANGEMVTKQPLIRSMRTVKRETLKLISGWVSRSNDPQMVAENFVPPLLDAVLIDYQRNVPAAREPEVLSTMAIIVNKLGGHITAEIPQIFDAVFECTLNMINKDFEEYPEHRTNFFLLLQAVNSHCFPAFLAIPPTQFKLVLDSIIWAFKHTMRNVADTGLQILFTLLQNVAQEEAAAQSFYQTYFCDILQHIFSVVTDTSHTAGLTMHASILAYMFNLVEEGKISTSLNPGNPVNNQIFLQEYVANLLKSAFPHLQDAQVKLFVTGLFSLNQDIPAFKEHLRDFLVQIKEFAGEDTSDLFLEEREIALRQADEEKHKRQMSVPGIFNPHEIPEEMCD
Test: pull-down; purified RGS14 mixed 2 h with purified XPO1-GST and His-Ran Q69L-GTP; His-Ran captured on Ni-NTA; Coomassie and immunoblot
Conditions: both partners purified

B1: recombinant RGS14 WT, purified from E. coli (natural protein, rat, UniProt O08773 1-544, looked up)
chain: MPGKPKHLGVPNGRMVLAVSDGELTSTSGSQAQGEGRGSSLSIHSLPSGPSSPFSTDEQPVASWAQSFERLLQDPRGLAYFTEFLKKEFSAENVTFWQACERFQQIPASDTKQLAQEAHNIYHEFLSSQALSPVNIDRQAWLSEEVLAQPRPDMFRAQQLQIFNLMKFDSYARFVKSPLYQECLLAEAEGRPLREPGSSHLGSPDTARKKPKLKPGKSLPLGVEELGQLPLAEGRPLRKSFRREMPGGAVNSALRRESQGSLNSSASLDLGFLAFVSSKSESHRKSLGSGEGESESRPGKYCCVYLPDGTASLALARPGLTIRDMLAGICEKRGLSLPDIKVYLVGKEQKALVLDQDCTVLADQEVRLENRITFQLELVGLERVVRISAKPTKRLQEALQPILAKHGLSLDQVVLHRPGEKQLVDLENLVSSVASQTLVLDTLPDAKTREASSIPPCRSQGCLPRTQTKDSHLPPLSSSLSVEDASGSTGKRQTCDIEGLVELLNRVQSSGAHDQRGLLRKEDLVLPEFLQLPSQRPGSQEAPP
notes: RGS14, rat; expressed as MBP-TEV-RGS14 (the constructs paragraph names pLic-GST); The methods call the fusion MBP-TEV-RGS14 but purify it on a glutathione column and name the vector pLic-GST; the carrier may have been GST; also called WT RGS14; not shown: MBP, N-terminal, cleaved
B1: binds.
